Assay results published in article PMC4817256.

Target: eukaryotic translation initiation factor 4E (human (endogenous in U2OS and HeLa)) (UniProt P06730)
Experiment: proximity ligation

Sequence of UniProt P06730 (P06730 whole entry): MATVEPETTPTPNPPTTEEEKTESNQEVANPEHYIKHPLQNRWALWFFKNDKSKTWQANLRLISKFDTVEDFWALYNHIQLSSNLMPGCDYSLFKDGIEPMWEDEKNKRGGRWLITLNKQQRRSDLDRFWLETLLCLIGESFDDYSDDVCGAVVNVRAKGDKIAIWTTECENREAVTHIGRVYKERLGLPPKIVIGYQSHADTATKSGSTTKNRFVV

HIV-1 Gag-GFP (natural protein)
PLA dots per cell (dots per cell): 6.98
